Legend:
PD1-hFc = target: T1, PD1-hFc (human, UniProt Q15116 25-170); assay: SPR ProteOn XPR36, PD1-hFc immobilised, antibody as analyte
T1 construct: extracellular domain; also called PD1-hFc protein; Human PD-1-Fc (S1420, Y-Biologics)
Description: A ProteOn XPR36 (BioRad) instrument was used. The GLC sensor chip (BioRad) was mounted on the instrument and washed with PBST buffer, and the carboxymethyldextran surface was activated with an EDC/sulfo-NHS mixed solution. PD1-hFc dissolved at a concentration of 5 ug/ml in a 10 mM sodium acetate buffer solution (pH 5.0) was injected and immobilized on the GLC sensor chip.
In order to deactivate the activated carboxyl groups that remain unreacted with the PD1 protein, 1 M ethanolamine was flowed and 10 mM glycine (pH 2.0) was injected in order to wash proteins that remain unbound to the sensor chip.
The equilibrium dissociation constant (KD) was calculated by plotting and fitting the sensogram data in the equilibrium state depending on concentration.

[1] = target: T2, human PD-1 (NM_005018.2) over-expressed on cells (human, UniProt Q15116 25-288); assay: cell-based or functional assay
T2 sequence (Q15116 25-288): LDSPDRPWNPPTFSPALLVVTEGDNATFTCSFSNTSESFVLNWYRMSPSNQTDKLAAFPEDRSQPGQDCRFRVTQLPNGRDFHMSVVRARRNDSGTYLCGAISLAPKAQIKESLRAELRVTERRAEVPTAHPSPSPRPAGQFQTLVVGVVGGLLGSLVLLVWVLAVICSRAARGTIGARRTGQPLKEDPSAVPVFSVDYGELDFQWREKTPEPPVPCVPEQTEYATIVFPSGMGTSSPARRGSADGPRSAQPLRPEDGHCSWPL

[2] = target: T2, human PD-1 (NM_005018.2) over-expressed …; assay: cell-based or functional assay; remark: listed apart in the source
M8 = target: T3, M8; assay: scFv-phage ELISA
T3 construct: also called PD1 mutant M8

M14 = target: T4, M14; assay: scFv-phage ELISA
T4 construct: also called PD1 mutant M14

M2-1 = target: T5, M2-1; assay: scFv-phage ELISA
T5 construct: also called PD1 mutant M2-1

M9 = target: T6, M9; assay: scFv-phage ELISA
T6 construct: also called PD1 mutant M9

M13 = target: T7, M13; assay: scFv-phage ELISA
T7 construct: also called PD1 mutant M13

M1 = target: T8, M1; assay: scFv-phage ELISA
T8 construct: also called PD1 mutant M1

M12 = target: T9, M12; assay: scFv-phage ELISA
T9 construct: also called PD1 mutant M12

M3 = target: T10, M3; assay: scFv-phage ELISA
T10 construct: also called PD1 mutant M3

M5 = target: T11, M5; assay: scFv-phage ELISA
T11 construct: also called PD1 mutant M5

M2 = target: T12, M2; assay: scFv-phage ELISA
T12 construct: also called PD1 mutant M2

M11 = target: T13, M11; assay: scFv-phage ELISA
T13 construct: also called PD1 mutant M11

M1-2 = target: T14, M1-2; assay: scFv-phage ELISA
T14 construct: also called PD1 mutant M1-2

M6 = target: T15, M6; assay: scFv-phage ELISA
T15 construct: also called PD1 mutant M6

[3] = target: T16, antigen PD1 (coated, construct not stated) (UniProt Q15116 25-170, limits assumed); assay: scFv-phage ELISA
T16 construct: also called PD1 antigen; PDCD1
T16 sequence (Q15116 25-170 limits assumed): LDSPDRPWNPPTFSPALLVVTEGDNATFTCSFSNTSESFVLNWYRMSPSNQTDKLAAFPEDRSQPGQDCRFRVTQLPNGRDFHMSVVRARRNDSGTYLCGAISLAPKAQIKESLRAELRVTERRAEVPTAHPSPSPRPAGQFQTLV

M7-2 = target: T17, M7-2; assay: scFv-phage ELISA
T17 construct: also called PD1 mutant M7-2

M5-1 = target: T18, M5-1; assay: scFv-phage ELISA
T18 construct: also called PD1 mutant M5-1

M5-2 = target: T19, M5-2; assay: scFv-phage ELISA
T19 construct: also called PD1 mutant M5-2

M4 = target: T20, M4; assay: scFv-phage ELISA
T20 construct: also called PD1 mutant M4

M2-2 = target: T21, M2-2; assay: scFv-phage ELISA
T21 construct: also called PD1 mutant M2-2

M1-1 = target: T22, M1-1; assay: scFv-phage ELISA
T22 construct: also called PD1 mutant M1-1

M10 = target: T23, M10; assay: scFv-phage ELISA
T23 construct: also called PD1 mutant M10

M7 = target: T24, M7; assay: scFv-phage ELISA
T24 construct: also called PD1 mutant M7

M7-1 = target: T25, M7-1; assay: scFv-phage ELISA
T25 construct: also called PD1 mutant M7-1

ITGA6-Fc = target: T26, ITGA6-Fc; assay: scFv-phage ELISA
T26 construct: Fc fusion
T26 sequence (P23229 whole entry, species assumed, looked up): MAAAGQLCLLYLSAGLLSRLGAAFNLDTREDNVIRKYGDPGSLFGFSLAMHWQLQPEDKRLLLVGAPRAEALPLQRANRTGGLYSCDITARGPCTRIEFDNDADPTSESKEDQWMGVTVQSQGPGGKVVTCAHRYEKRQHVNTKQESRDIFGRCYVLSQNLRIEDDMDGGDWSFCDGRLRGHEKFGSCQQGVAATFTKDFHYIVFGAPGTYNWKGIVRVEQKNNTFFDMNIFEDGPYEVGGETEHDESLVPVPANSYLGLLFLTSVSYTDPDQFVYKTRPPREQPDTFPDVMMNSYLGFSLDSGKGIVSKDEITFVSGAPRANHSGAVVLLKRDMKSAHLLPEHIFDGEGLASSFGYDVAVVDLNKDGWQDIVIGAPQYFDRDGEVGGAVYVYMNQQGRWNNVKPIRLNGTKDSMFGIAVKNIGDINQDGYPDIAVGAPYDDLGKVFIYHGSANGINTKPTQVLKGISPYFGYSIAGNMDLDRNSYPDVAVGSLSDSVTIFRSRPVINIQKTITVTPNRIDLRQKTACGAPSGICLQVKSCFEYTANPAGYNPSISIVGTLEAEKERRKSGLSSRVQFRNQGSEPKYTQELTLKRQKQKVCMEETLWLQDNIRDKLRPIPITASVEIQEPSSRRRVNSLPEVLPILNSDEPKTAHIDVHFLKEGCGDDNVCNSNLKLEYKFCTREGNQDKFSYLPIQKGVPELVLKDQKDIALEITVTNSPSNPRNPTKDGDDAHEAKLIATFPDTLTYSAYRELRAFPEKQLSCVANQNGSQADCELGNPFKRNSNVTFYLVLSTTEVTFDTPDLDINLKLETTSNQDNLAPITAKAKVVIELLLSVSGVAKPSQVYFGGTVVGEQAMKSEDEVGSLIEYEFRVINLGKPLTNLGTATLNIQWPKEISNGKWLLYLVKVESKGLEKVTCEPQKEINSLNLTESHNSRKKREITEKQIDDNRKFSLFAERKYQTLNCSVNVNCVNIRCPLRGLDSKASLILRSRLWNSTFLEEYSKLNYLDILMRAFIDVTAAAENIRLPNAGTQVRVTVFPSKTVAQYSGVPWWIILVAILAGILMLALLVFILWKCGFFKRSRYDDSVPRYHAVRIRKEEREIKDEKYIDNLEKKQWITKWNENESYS

T1 sequence (Q15116 other isoform, or with tags, fused parts or gaps limits assumed): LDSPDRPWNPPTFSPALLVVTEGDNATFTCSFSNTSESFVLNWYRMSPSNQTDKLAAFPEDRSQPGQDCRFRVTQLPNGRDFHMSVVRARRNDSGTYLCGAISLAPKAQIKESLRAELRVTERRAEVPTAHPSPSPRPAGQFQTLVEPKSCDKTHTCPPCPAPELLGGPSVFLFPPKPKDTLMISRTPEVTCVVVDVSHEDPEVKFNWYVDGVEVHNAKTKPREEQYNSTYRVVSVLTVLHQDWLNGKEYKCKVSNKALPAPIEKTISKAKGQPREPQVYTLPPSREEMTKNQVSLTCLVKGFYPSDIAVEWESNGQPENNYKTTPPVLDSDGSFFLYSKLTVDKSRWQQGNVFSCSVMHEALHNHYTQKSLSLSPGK

Binder	OD490 (M8)	OD490 (M14)	OD490 (M2-1)	OD490 (M9)	OD490 (M13)	OD490 (M1)	OD490 (M12)	OD490 (M3)	OD490 (M5)	OD490 (M2)	OD490 (M11)	OD490 (M1-2)	OD490 (M6)	OD490 [3]	OD490 (M7-2)	OD490 (M5-1)	OD490 (M5-2)	OD490 (M4)	OD490 (M2-2)	OD490 (M1-1)	also measured
PD1-45D6(A/3H7) (antibody, V domains shown, scFv-phage in the screening ELISA; whole IgG in the other assays; also called 45D6-3H7; PD1 45D6 3H7) VH: QVQLVESGGGVVQPGRSLRLSCAASGFTFSSYAMHWVRQVPGKGLEWVAVISYDGNDKYYADSVKGRFTISRDNSKNTLYLQMNSLRAEDTAVYYCVPTTFEYWGQGSQVTVSS VL: DIVMTQTPLSLPVTPGEPASISCRSSQSLLDSDDGNTYLDWYLQKPGQSPQLLIYTLSHRASGVPGRFSGSGSGTEFNLRISRVEAEDVGIYYCMQRVEFPFTFGQGTKLEIK	–	–	–	–	–	–	–	–	–	–	–	–	–	–	–	–	–	–	–	–	Kd (PD1-hFc): 0.0253 nM; koff (PD1-hFc): 7.78e-06 s⁻¹; kon (PD1-hFc): 308000 M⁻¹ s⁻¹; EC50 [1]: 1.64 nM; EC50 [nM], PD1/PD-L1 blockade bioassay [2]: 1.98 nM
PD1-45D6(A/3D2) (antibody, V domains shown, scFv-phage in the screening ELISA; whole IgG in the other assays; also called 45D6-3D2; PD1 45D6 3D2) VH: QVQLVESGGGVVQPGRSLRLSCAASGFTFSSYAMHWVRQVPGKGLEWVAVISYDGNDKYYADSVKGRFTISRDNSKNTLYLQMNSLRAEDTAVYYCVPTTFEYWGQGSQVTVSS VL: DIVMTQTPLSLPVTPGEAASISCRSSQSLLDSEDGNTYLDWYLQKPGQSPQLLIYTLSHRASGVPDRFSGSGSGTDFTLKISRVEAEDVGIYYCMQRVEFPFTFGQGTKVEIK	–	–	–	–	–	–	–	–	–	–	–	–	–	–	–	–	–	–	–	–	Kd (PD1-hFc): ≤ 0.001 nM; koff (PD1-hFc): ≤ 1e-07 s⁻¹; kon (PD1-hFc): 181000 M⁻¹ s⁻¹; EC50 [1]: 2 nM; EC50 [nM], PD1/PD-L1 blockade bioassay [2]: 2.16 nM
PD1-48A9 (antibody, V domains shown, scFv-phage in the screening ELISA; whole IgG in the other assays) VH: QMQLVQSGAEVKKPGSSVKVSCKASGDTFTRYIINWVRQAPGQGLEWMGRVIPTLGLTTYAQNFQDTVTIIADKSTNTAYMELKNLRSEDTAVYYCARGYGSGAFDIWGQGTMITVSS VL: DIVMTQTPLSLPVTPGEPASISCRSSQSLLDSHDGNTYLDWYLQKPGQSPQLLIYTLSHRASGVPDRFSGSGSGTDFTLKISRVEAEDVGLYYCMQRIDFPYTFGQGTKVEIK	1.7	4	3.8	3.9	4	3.7	3.9	2	1.3	0.3	0.3	3.9	3.9	2.1	0.4	0.6	3.9	3.9	3.9	3.8	EC50 [nM], PD1/PD-L1 blockade bioassay [2]: 8.64 nM; OD490 (M10): 3.8; OD490 (M7): 0.3; OD490 (M7-1): 0.4; OD490 (ITGA6-Fc): 0.3
PD1-45F1 (antibody, V domains shown, scFv-phage in the screening ELISA; later whole IgG) VH: QVQLVQSGAEVKKPGASVKLSCKASGYTFNSYYVHWVRQAPGQGLEWMGIINPSDGSATYAQKFQGRVTMTSDTSTSSVYMELSSLRSEDTAVYYCARDGNYYDSRGYYYDTFDMWGQGTLITVSS VL: SYELTQDPAVSVALGQTVRITCQGDSLRTYYASWYQQKPGQAPILVIYGKNNRPSGIPDRFSGSSSGNTASLTITAAQAEDEADYYCNSRDSSGKSLVFGGGTKLTVL	3.9	3.8	3.9	3.8	2.2	3.9	0.4	3.8	3.8	3.8	3.8	3.9	4	4	3.9	3.9	3.9	3.9	4	3.9	OD490 (M10): 3.9; OD490 (M7): 3.8; OD490 (M7-1): 3.9; OD490 (ITGA6-Fc): 0.1
PD1-45F4 (antibody, V domains shown, scFv-phage in the screening ELISA; later whole IgG) VH: QMQLVESGGGLVQPGRSLRLSCAASGFTFDDYAMHWVRQAPGQGLEWVSGISWNSNNIKYADSVKGRFTISRDNSKNSLYLQMNSLRAEDTAVYYCARGALTPLDVWGQGTPVTVSS VL: SYELTQAPSLSVSPGQTANIICSGDNLRTKYVSWYQQKPGQSPLLVIYQDTRRPSGIPARFSGSNSGNTATLTISGTQTRDESTYYCMTWDVDTTSMIFGGGTKLTVL	3.6	1.8	3	3.3	3.5	2.6	3.7	3.7	0.1	2.9	0.3	3.6	3.7	3.8	3.4	0.1	3.1	2.7	2.5	2.5	OD490 (M10): 3.3; OD490 (M7): 3.5; OD490 (M7-1): 3.5; OD490 (ITGA6-Fc): 0.1
PD1-49B9 (antibody, V domains shown, scFv-phage in the screening ELISA; later whole IgG) VH: QMQLVESGGGLVQPGRSLRLSCAASGFTFEDYAMHWVRQPPGKGLEWVSSISWNSHNIAYADSVKGRFTISRDNSKNSLYLQMNSLRAEDTAVYYCSTSGLGVHAWGQGTMVTVSS VL: QSALTQPPSASGSPGQSVTISCTGTSSDVGGYNYVSWYQQHPGKAPKLMIYEVSKRPSGVPDRFSGSKSGNTASLTVSGLQPEDEADYYCSSFARNSNYVFGTGTKVTVL	4	3.9	3.8	3.9	3.9	3.9	3.9	3.9	3.9	3.9	1.4	3.9	3.9	3.9	3.9	3.9	4	3.8	3.9	3.8	OD490 (M10): 3.9; OD490 (M7): 3.9; OD490 (M7-1): 3.9; OD490 (ITGA6-Fc): 0.3

Source: patent US20190248900A1 (Y BIOLOGICS, published 2019)
